The source of these data is the DeepSol protein solubility set.

A short description of this series: soluble on expression in E. coli; label from the status in PepcDB or PDB records.
For the sequence “MPEFVQYVGGHFEEVGKEFMQYFIEIGNLKSNETVLDVGCGIGRMAVPLMNYLSDDGTYYGFDLFNKGITWCKNNISTRRNNFHFEHVDIYNQFYNPDGKEDASQYKFPYEDESFDFIFLTSVFTHLLPKELEHYVREIARVLKKDGRCFITFFLINPESSYYLNAGLSPLGFYHQIDNCYVLNKDIPNFAVAYPEEDIRTLLNKYGLEMQTPPHYGSWCGRTEHTSYQDIILAQKLEHHHHHH”, the “soluble on expression in E. coli” value is given as “soluble”.

For the sequence “MGSDKIHHHHHHMPVMFQQMQYFIAIVNNHSFTQAAVDCHISQSAISQQMKELESQLGVKLLNRKGRSFEVTEAGQYFYIHSQDILADVDQLIKKTIKIEKNDEVELRVGYLRSFGTAEFLQTVSKFTQEFPKVKIKISSGTHEELYELLQTGKIDLNFSDQRRALSNEYQNEFLTASEFMVAVNNSLPVETQKIDVADLVDIPCILIIDGHQQVSEEEYYRNVLGVKSEFVIAKSYDEAQMLIASNQGYLIINQRMRTQLDKDIVKMISLVKGDRKLIQNYYAYWQANNSGYYIETFAELLKQTFA”, the “soluble on expression in E. coli” value is reported as “not soluble”.

Regarding “MAARPITLGIDLGTTSVKAALLRAAPDDPSGFAVLASCARAARAEAAVESAVAGPQGREQDVSRILQALHECLAALPRPQLRSVVGIGVSGQMHGVVFWKTGQGCEWTEGGITPVFEPRAVSHLVTWQDGRCSSEFLASLPQPKSHLSVATGFGCATIFWLLKYRPEFLKSYDAAGTIHDYVVAMLCGLPRPLMSDQNAASWGYFNTQSQSWNVETLRSSGFPVHLLPDIAEPGSVAGRTSHMWFEIPKGTQVGVALGDLQASVYSCMAQRTDAVLNISTSVQLAASMPSGFQPAQTPDPTAPVAYFPYFNRTYLGVAASLNGGNVLATFVHMLVQWMADLGLEVEESTVYSRMIQAAVQQRDTHLTITPTVLGERHLPDQLASVTRISSSDLSLGHVTRALCRGIVQNLHSMLPIQQLQEWGVERVMGSGSALSRNDVLKQEVQRAFPLPMSFGQDVDAAVGAALVMLRRHLNQKES”, the “soluble on expression in E. coli” value is “not soluble”.

As for “MSHSIEQLSINTIRTLSIDAIEKANSGHPGMPMGAAPMAYTLWTQFMKHNPNNPTWFNRDRFVLSAGHGSMLLYSLLHLSGYDVTMDDLKNFRQWGSKTPGHPEYGHTAGVDATTGPLGQGIATAVGMAMAERHLAAKYNRDAYNIVDHYTYAICGDGDLMEGVSAEASSLAAHLQLGRLVVLYDSNDISLDGDLNRSFSESVEDRYKAYGWQVIRVEDGNDIEAIAKAIEEAKADEKRPTLIEVRTTIGFGSPNKSGKSASHGSPLGVEETKLTKEAYAWTAEQDFHVAEEVYENFRKTVQDVGETAQAEWNTMLGEYAQAYPELANELQAAMNGLLPEGWEQNLPTYELGSKAATRNSSGAVINAIAESVPSFFGGSADLAGSNKTYMNNEKDFTRDDYSGKNIWYGVREFAMGAAMNGIALHGGLKTYGGTFFVFSDYLRPAIRLAALMQLPVTYVFTHDSIAVGEDGPTHEPIEQLAALRAMPNVSVIRPADGNESVAAWRLALESTNKPTALVLTRQDLPTLEGAKDDTYEKVAKGAYVVSASKKETADVILLATGSEVSLAVEAQKALAVDGVDASVVSMPSMDRFEAQTAEYKESVLPKAVTKRFAIEMGATFGWHRYVGLEGDVLGIDTFGASAPGEKIMEEYGFTVENVVRKVKEML”, the “soluble on expression in E. coli” value is given as “not soluble”.

Regarding “MYDTVRDRLIHLHHCRGAGWKTIHSLLKVDPTLTAPFSLPPNDLRPLVPLSDAQWTAFFHDLHSIDVQRVIKTYKGRCIRVITVFDSDYPPLLKYIYAPPWVLYAKGDSALLQEWKLISIVGTRRPTKEGIEALNKLVPPLVAAGFTIVSGLAFGIDVCAHQLAVQHGGSTIAVIAGGLDHIYPKEHRPFATLLMNEQLVIAEHPPATRPQAWQFPARNRIISGLSLGTLVVQAKRKSGSLITAAYALEQGREVFAVPGPIGLAESAGPNTLIQHGAKLVQEAADILDEFPYV”, the “soluble on expression in E. coli” value is “not soluble”.

“MAHHHHHHMAKTVDNAALLAEIDQLRRLIAEKEALITPDGGSLSKKSKKKSQMNMVETEPVQGCRDFPPETMRLRKYLFDVFHSTARKFGFEEYDSPVLESEELYIRKAGEEITEQMFNFITKGGHRVALRPEMTPSLARQLLAKGRSLLLPAKWYSIPQCWRYEAITRGRRREHYQWNMDIIGVKSVSSEVELVCAACTAMQSLGLSSKDVGVKINSRKILQTVVEQAGVSADKFAPVCVIVDKMEKLPREEVVAQLAAIGLESNVVDAITSTLSLKTIDEIAQRIGEEHEAVRELRDFITQIEAYGFGDWVIFDASVVRGLAYYTGIVFEGFDRDGNFRALCGGGRYDNLLTTYGSPTAVPCVGFGFGDCVIVELLNEKKLLPELHHVVDDLVIPFDETMRPHALSILRRLRDAGRSADIVFDKKKVVQAFNYADRIGALRAVLVAPDEWARGEVRVKMLREGAGREEGANERGIVLPVDKIV”: the “soluble on expression in E. coli” value is recorded as “not soluble”.

Take “MSLDLLFSECNDEIDNAKLIMKERRFTASYTFAKFSTGSMLLTKDIVGKSGVSIKRLPTELQRKFLFDDVYLDKEIEKVTIEARKSNPYPQISESSLLFKDALDYMEKTSSDYNLWKLSSILFDPVSYPYKTDNDQVKMALLKKERHCRLTSWIVSQIGPEIEEKIRNSSNEIEQIFLYLLLNDVVRASKLAIESKNGHLSVLISYLGSNDPRIRDLAELQLQKWSTGGCSIDKNISKIYKLLSGSPFEGLFSLKELESEFSWLCLLNLTLCYGQIDEYSLESLVQSHLDKFSLPYDDPIGVIFQLYAANENTEKLYKEVRQRTNALDVQFCWYLIQTLRFNGTRVFSKETSDEATFAFAAQLEFAQLHGHSLFVSCFLNDDKAAEDTIKRLVMREITLLRASTNDHILNRLKIPSQLIFNAQALKDRYEGNYLSEVQNLLLGSSYDLAEMAIVTSLGPRLLLSNNPVQNNELKTLREILNEFPDSERDKWSVSINVFEVYLKLVLDNVETQETIDSLISGMKIFYDQYKHCREVAACCNVMSQEIVSKILEKNEGHHHHHH”: the “soluble on expression in E. coli” value is on record as “not soluble”.

“MAEKFIKHTGLVVPLDAANVDTDAIIPKQFLQKVTRTGFGAHLFNDWRFLDEKGQQPNPDFVLNFSQYQGASILLARENFGCGSSREHAPWALTDYGFKVVIAPSFADIFYGNSFNNQLLPVKLSDAEVDELFALVKANPGIHFDVDLEAQEVKAGEKTYRFTIDAFRRHCMMNGLDSIGLTLQHDDAIAAYEAKQPAFMR”: the “soluble on expression in E. coli” value is given as “not soluble”.

On to “MGTVLFEDKASETKGSDIYHRIIPDAESYIKEQARTVLATLYNSPEDSITPVNKIHYTLEDIEGISAKGGGNGDVTIFYSTRHIEKSFAENDTAKLFFETRGVLLHELTHAYQLEPQGIGSYGTNRVFWAFIEGMADAVRVANGGFDGPNARPKGGNYMDGYRTAGYFFVWLRDNKDPEFLRKFNRSTLEVIPWSFDGAIKHILGTEYSIDELWHEYQVAVGDIQVLEHHHHHH”, for which the “soluble on expression in E. coli” value is listed as “not soluble”.

In the case of “MSLAPRLKLRDITFFERPVQFARPFRFGAITINATTQLFVRVEIEVEGRGSAVGASAELLVPKWFDKRPEFSPAQTVDGLRRSLEIARGLYLARTGFLTAFDLHAACIGAQIATCAKKNIPALAAAYGLAEIDKAILDALLRGVETGFFDGMAGNVAGIDARLSPDLKDAEIAAFLSSRKPLPRVAIRHTVDLDDTVEGKGGVADAHENAGASYFKLKLRGDPAADAARLARIGKELDTLGRSYKVTLDANEQYADLAALQALMDRLDHDSDLRPIASRLLYVEQPMPRDITRQSPLGSLAARGFIIDEADDSYDAFPAARALGYHGISSKSCKGLYKSIVSATRAAKWSGGGEKFFVTGEDLTCQAGLAVQQDLALGAFLGVTHAERNGHHYVDGFGDTPAAEAAAFAAAHPDLYADAGQGIRLSIHDGDLLTGSLHAAGFATSVHPDWSALRPLEQPTSLQEQLAEGHHHHHH”, the “soluble on expression in E. coli” value was “soluble”.

On to “MNVWSKLLTALRGGANEAGEALVDSQALRILDQEIRDADQELRKSKEALAEIMARQKLAAERANGSAAKIAEYESYALKALEAGNEALAQEVAQKIANLENDLAVEREQADGFAASVAQLRKAVTQAEGNIKHLKQQVDTVKATESVQKAQQAVAQRYGGSQSKLHTAVESLERIKQKQAERAAKMDAAAELANTSSPDDALDAKLREAGIVAGSTSADSVLARLKDRSKSLEHHHHHH”, for which the “soluble on expression in E. coli” value is listed as “not soluble”.

Consider “MSLEGHIVITGATGVIGSEVARRLIKSGREVVVFARSPQSAAAKVPGAADYVRWDSDMAPDGWSSSIDGAYAVIHLAGRPLLETRWTEEHKVACYDSRIKGTRALVAAMASASVKPKVFVSSSAIGYYGSFDRCEETDPLTEKAAPGKDFLAKICFDWEKEARPAETLGTRVVLLRTGIVLSTKGGMLQKMMIPFSYFVGGPVGSGDQCLSWIHLDDEVSIILQALDNADWSGPVNAVAPEPVSMKAFADSLGLVMHRPSLFPVPKLAVQILLGEGADYAVKGQKVSPEFLKERDFHFAWPSLNEALADLVSRGEGHHHHHH”, for which the “soluble on expression in E. coli” value is recorded as “soluble”.

Turning to “MGSDKIHHHHHHMFVEACGRLVLIRKIYGLVKVFMVKKTIRYMRISLMLTNDAIFTTRLQKGGALLDDMRQLVCQWTEAVAKPESQAGEILHKATRSRVADTYRRAFLPRFLKGSPQDAWKLARALEEAHPSIEIIRPFYYWITARAEPILYAYVTEELVEKAKTSDRAVRTEETASWINNTLRSCGRVWSPTVQLKVARGILAALRDFAILEGAVNKRLVHGHLPIETFCLIAFLLNLMGIGARELVEHSDWKLFLLAGPEVERLFFEAHQHGWLHYQAAGRVHRIEFPTNDFKDYIRVIFGTES”, the “soluble on expression in E. coli” value is given as “not soluble”.

Consider “MKKIPQISDAELEVMKVIWKHSSINTNEVIKELSKTSTWSPKTIQTMLLRLIKKGALNHHKEGRVFVYTPNIDESDYIEVKS”, for which the “soluble on expression in E. coli” value is recorded as “soluble”.

With “MSLRHDVILVLLDGLNHSVARDCMGHLQALCGAGRGQSYRLECELPSLSRPLYECILTGVPPIDSGILHNDVVRLSQEQSLFHYARAAGLSTAAAAYHWVSELYNRAPFDPARDRHTDDSALPIQRGHFYWSDHYPDSHLFADAESLRRRHAPNFMLVHSMNIDDAGHRHGLASPAYRNAARRADALLSEYLHQWLAAGYQVAITADHGMNEDRSHGGILEEEREVPLFVFGDAFSRDDLAQPLQTDLCGTLCEILGAAHDKPVCREEGHHHHHH”, the “soluble on expression in E. coli” value is “not soluble”.

With “MGSDKIHHHHHHMTILSDVKALGQQIWLDNLSRSLVQSGELAQMLKQGVCGVTSNPAIFQKAFAGDALYADEVAALKRQNLSPKQRYETMAVADVRAACDVCLAEHESTGGKTGFVSLEVSPELAKDAQGTVEEARRLHAAIARKNAMIKVPATDAGIDALETLVSDGISVNLTLLFSRAQTLKAYAAYARGIAKRLAAGQSVAHIQVVASFFISRVDSALDATLPDRLKGKTAIALAKAAYQDWEQYFTAPEFAALEAQGANRVQLLWASTGVKNPAYPDTLYVDSLIGVHTVNTVPDATLKAFIDHGTAKATLTESADEARARLAEIAALGIDVETLAARLQEDGLKQFEEAFEKLLAPLV”, the “soluble on expression in E. coli” value is listed as “not soluble”.

“MAHHHHHHMVKETGLYDELGISPDATEPQIRSAYRRKALQYHPDKNSGDPAAAEKFKKVAEAYEILSDAERRKQYDTFGRNGPGGAAGGSGGVPGGGFGSSFGPGTDPMDIFSSFFGFASGGGPGASRQQRPAKPSFILVVLQCSLEELYCGTVKVLQVRRRRLCPSCHGHGTSSGRPSPVCPQCKGNKTVTKALNFGGLTAYQQCRCDHCEGLGKLPIRLPCARCGPVYDAHQRAPLSGTRKPDPLPRGVVVDEKMIKVSIEPGTEDSDALNYVGQGDELPGFGAVGDVLVVIEQLPHPHYHRLNSTDLLLSNCRVPLGCLFRDAFSIPIELLDGRVLRLATPLREGNVPHFLFDSQHVFVVDGEGMPLKGRKGGGAAADANHDDSGAADDVAYRKKGKLYLCVNVVFPSSLTPAQVDIIAKALGGDHERDPAATGEDAGRVVTLQPHHSPAPSWYTVDTEGNAWYQPNGPATAKKKRKATSTTA”: the “soluble on expression in E. coli” value was “not soluble”.

With “MGPMPKLADRKLCADQECSHPISMAVALQDYMAPDCRFLTIHRGQVVYVFSKLKGRGRLFWGGSVQGDYYGDLAARLGYFPSSIVREDQTLKPGKVDVKTDKWDFYCQ”, the “soluble on expression in E. coli” value was “soluble”.
